Data taken from patent publication US20150218281A1 (Ablynx, published 2015).

How the values were obtained:
[1] = target: T1, recombinant human OX40L (extracellular domain, R&D Systems) (human, UniProt P23510 51-183); assay: SPR, second injection after competitor OX40L19A07
T1 construct: also called hOX40L; rec. hOX40L
T1 sequence: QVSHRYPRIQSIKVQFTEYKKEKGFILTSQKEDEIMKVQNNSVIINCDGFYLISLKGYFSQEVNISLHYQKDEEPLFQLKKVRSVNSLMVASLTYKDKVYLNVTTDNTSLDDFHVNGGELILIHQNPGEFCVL
Description: (§1) In addition, it was investigated to what extend the 7 anti-OX40L Nanobodies have a different or identical or overlapping epitope. Standard conditions were as described above. […] 1300 RU. A dual injection was performed at 10 μl/min for 2 min, starting with 500 nM of the first Nanobody, followed by 500 nM of the second Nanobody. After 10 min dissociation, regeneration of the surface was performed by injection of 50 mM NaOH for 5-20 sec at 100 μl/min.

[2] = target: T1, recombinant human OX40L (extracellular …); assay: SPR, second injection after competitor OX40L15B07
Description: as §1

[3] = target: T2, full length human OX40L expressed on CHO cells (human, UniProt P23510 1-183); assay: FACS binding to CHO cells, anti-c-myc detection
T2 construct: CHO K1 stably transfected as described for CAKI cells; also called CHO-hOX40L; hOX40L expressing CHO cells
T2 sequence: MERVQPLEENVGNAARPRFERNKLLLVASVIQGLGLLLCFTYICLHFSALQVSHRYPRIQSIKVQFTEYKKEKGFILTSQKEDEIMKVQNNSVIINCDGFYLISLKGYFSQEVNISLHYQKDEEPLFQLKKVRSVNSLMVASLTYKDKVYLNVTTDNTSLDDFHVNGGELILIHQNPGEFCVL
Description: (§2) Transfection of CHO K1 with the respective expression plasmid DNA and selection of clones with high expression levels was performed as described in Example 1. Binding of the Nanobodies to the cell surface expressed OX40L was assessed by FACS analysis of cells as described below.
(§3) After washing bound Nanobodies were detected in FACSArray™ using mouse anti-c-myc and PE conjugated goat anti-mouse IgG.

[4] = target: T3, cynomolgus OX40L expressed on CHO cells (cynomolgus monkey, UniProt P23510 1-183 (human entry)); assay: FACS binding to CHO cells, anti-c-myc detection
T3 construct: also called cynoOX40L; CHO-cynoOX40L
T3 chain: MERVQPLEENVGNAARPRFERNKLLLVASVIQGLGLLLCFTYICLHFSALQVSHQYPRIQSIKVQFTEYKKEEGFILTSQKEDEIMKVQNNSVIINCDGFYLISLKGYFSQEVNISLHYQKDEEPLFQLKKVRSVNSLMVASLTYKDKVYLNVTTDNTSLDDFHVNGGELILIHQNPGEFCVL
Description: as §2, §3

[5] = target: T1, recombinant human OX40L (extracellular …); assay: SPR, second injection after competitor OX40L01B11
Description: as §1

[6] = target: T1, recombinant human OX40L (extracellular …); assay: SPR, second injection after competitor OX40L18E09
Description: as §1

[7] = target: T4, biotinylated hOX40L (R&D Systems, biotinylated in house) (human, UniProt P23510 51-183, biotinylated with Sulfo-NHS-LC-Biotin, sites not stated); assay: AlphaScreen, 31 pM biotinylated hOX40L + 80 pM OX40/Fc
T4 construct: same bought protein as m10, biotinylated; also called biotinylated OX40L
T4 sequence: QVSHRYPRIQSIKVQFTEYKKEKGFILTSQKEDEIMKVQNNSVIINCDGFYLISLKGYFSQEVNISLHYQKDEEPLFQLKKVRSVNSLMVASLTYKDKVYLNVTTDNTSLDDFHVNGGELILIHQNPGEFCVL
Description: (§4) Next, streptavidin donor beads were added and incubated for an additional 1 hour. Fluorescence was measured by reading plates on the EnVision Multilabel Plate Reader using an excitation wavelength of 680 nm and an emission wavelength of 520 nm.

[8] = target: T1, recombinant human OX40L (extracellular …); assay: SPR, second injection after competitor OX40L01E07
Description: as §1

hCD30L = target: T5, hCD30L (human, UniProt P32971 63-234); assay: competition ELISA on neutravidin captured biotinylated hOX40L
T5 sequence (looked up): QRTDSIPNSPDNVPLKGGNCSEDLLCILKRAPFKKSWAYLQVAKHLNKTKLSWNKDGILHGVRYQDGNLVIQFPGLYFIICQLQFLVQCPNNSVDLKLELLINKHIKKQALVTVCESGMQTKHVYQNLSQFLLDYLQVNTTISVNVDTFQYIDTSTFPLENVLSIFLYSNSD
Description: (§5) The binding of OX40L blocking Nanobodies to other TNF family members was tested in a competition ELISA.
(§6) Detection was done using sTMB (SDT Reagents, Baesweiler, Germany), the reaction was stopped with 1M HCl and absorbance was determined at 450 nm.

[9] = target: T6, human Receptor Activator for Nuclear Factor kappa B Ligand (human, UniProt O14788 143-317, limits assumed); assay: as above
T6 construct: also called hRANKL; RANKL
T6 sequence (looked up): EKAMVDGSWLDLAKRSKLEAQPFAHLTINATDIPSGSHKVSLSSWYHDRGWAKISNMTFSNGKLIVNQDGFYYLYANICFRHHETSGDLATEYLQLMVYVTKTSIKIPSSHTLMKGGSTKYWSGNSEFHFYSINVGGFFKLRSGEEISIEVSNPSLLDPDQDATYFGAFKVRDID
Description: as §5, §6

[10] = target: T7, human tumor necrosis factor-related apoptosis inducing ligand (human, UniProt P50591 114-281); assay: as above
T7 construct: also called hTRAIL; TRAIL
Description: as §5, §6

hCD40L = target: T8, hCD40L (human, UniProt P29965 113-261); assay: as above
T8 sequence (looked up): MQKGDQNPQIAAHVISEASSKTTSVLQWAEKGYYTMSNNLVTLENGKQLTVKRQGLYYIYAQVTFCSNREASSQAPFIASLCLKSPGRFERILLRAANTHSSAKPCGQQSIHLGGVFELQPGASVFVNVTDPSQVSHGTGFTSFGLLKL
Description: as §5, §6

hTNF-alpha = hTNF-alpha (human, UniProt P01375 77-233); assay: as above
Description: as §5, §6

[11] = target: T2, full length human OX40L expressed on …; assay: competition FACS with hOX40/Fc on CHO-hOX40L
Description: The competition FACS assay was performed as described in example 2.

[12] = target: T4, biotinylated hOX40L (R&D Systems, …); assay: AlphaScreen, 120 pM biotinylated hOX40L + 0.2 nM hOX40/Fc
Description: as §4

[13] = target: T1, recombinant human OX40L (extracellular …); assay: SPR, after second injection of buffer HBS-EP+
Description: as §1

[14] = target: T1, recombinant human OX40L (extracellular …); assay: SPR, second injection after competitor OX40L19D08
Description: as §1

[15] = target: T1, recombinant human OX40L (extracellular …); assay: SPR, second injection after competitor OX40L01E10
Description: as §1

[16] = target: T2, full length human OX40L expressed on …; assay: competition FACS, 3.1 nM hOX40/Fc on hOX40L expressing cells
[17] = target: T2, full length human OX40L expressed on …; assay: cell-based or functional assay
[18] = target: T4, biotinylated hOX40L (R&D Systems, …); assay: hOX40L/hOX40 AlphaScreen, assay 1, native
Description: Next, streptavidin donor beads were added and incubated for an additional 1 hour. Fluorescence was measured by reading plates on the EnVision Multilabel Plate Reader using an excitation wavelength of 680 nm and an emission wavelength of 520 nm. […]

[19] = target: T4, biotinylated hOX40L (R&D Systems, …); assay: hOX40L/hOX40 AlphaScreen, assay 3, heated at Tm+10 C
Description: as §4
(§7) In the TSA assay, Nanobodies were diluted to a concentration of 0.2 mg/ml and melting temperature (Tm) was determined at different pH by stepwise increase in temperature in presence of Sypro Orange, a dye that binds to […] residues that become exposed upon unfolding of the protein, using the Lightcycler (Roche) for detection. […] In SEC analysis, the Nanobodies were analyzed on a Phenomenex matrix to allow detection of multimers, aggregates or ‘stickyness’.

[20] = target: T4, biotinylated hOX40L (R&D Systems, …); assay: hOX40L/hOX40 AlphaScreen, assay 3, native
Description: as §4, §7

[21] = target: T4, biotinylated hOX40L (R&D Systems, …); assay: hOX40L/hOX40 AlphaScreen, assay 2, native
Description: as §4, §7

[22] = target: T1, recombinant human OX40L (extracellular …); assay: cell-based or functional assay
[23] = target: T4, biotinylated hOX40L (R&D Systems, …); assay: hOX40L/hOX40 AlphaScreen, assay 2, heated at Tm+10 C
Description: as §4, §7

hTNF-alpha, sequence (P01375 77-233 limits assumed): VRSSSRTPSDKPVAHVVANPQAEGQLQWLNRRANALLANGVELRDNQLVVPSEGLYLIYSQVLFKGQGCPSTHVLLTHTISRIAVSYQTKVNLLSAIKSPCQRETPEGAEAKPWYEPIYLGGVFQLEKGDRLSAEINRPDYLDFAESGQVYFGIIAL
T7 sequence (P50591 114-281 limits assumed): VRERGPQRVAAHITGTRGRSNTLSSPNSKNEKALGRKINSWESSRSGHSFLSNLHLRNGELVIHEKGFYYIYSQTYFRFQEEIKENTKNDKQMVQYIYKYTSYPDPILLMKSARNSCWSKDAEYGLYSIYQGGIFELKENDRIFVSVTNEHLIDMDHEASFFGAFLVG

B1: OX40L01E10 (VHH)
VHH: EVQLVESGGGLVQAGDSLRLSCAASGLTFSSFAMGWFRQAPGKEREFVAAISRSGYGTSEADSVRDRFIISRDNAKNTVTLHLSRLKPEDTAVYYCAAEHTLGRPSRSQINYLYWGQGTQVTVSS
notes: monovalent Nanobody from E. coli; not shown: C-terminal c-myc and His6 tag
Question: Which “Binding Level sample 2 (RU)” value [1] does the source give for B1 here?
Answer: The value was 183 RU.

Question: And the “Binding Level sample 2 - sample 1 (RU)” value [1]?
Answer: The value was 17 RU.

Question: What about the “Binding Level sample 2 (RU)” value [2] of the same binder?
Answer: Its value is 190 RU.

Question: What about the “Binding Level sample 2 - sample 1 (RU)” value [2] of the same binder?
Answer: The value was 5 RU.

Question: What about the EC50 [3] of the same binder?
Answer: The EC50 was 3.77 nM.

Question: And the EC50 [4]?
Answer: The EC50 was 5.54 nM.

Question: And the “Binding Level sample 2 (RU)” value [5]?
Answer: The value was 342 RU.

Question: And the “Binding Level sample 2 - sample 1 (RU)” value [5]?
Answer: The value was -7 RU.

Question: And the “Binding Level sample 2 (RU)” value [6]?
Answer: The value was 176 RU.

Question: What about the “Binding Level sample 2 - sample 1 (RU)” value [6] of the same binder?
Answer: Its value is -2 RU.

Question: What about the IC50 [7] of the same binder?
Answer: Its IC50 is 0.264 nM.

Question: And the “Binding Level sample 2 (RU)” value [8]?
Answer: Its value is 193 RU.

Question: And the “Binding Level sample 2 - sample 1 (RU)” value [8]?
Answer: Its value is 5 RU.

Question: Does B1 bind (hCD30L)?
Answer: Result: no binding (tested: starting from 100 fold molar excess)

Question: Does B1 bind [9]?
Answer: Result: no binding (tested: starting from 100 fold molar excess)

Question: Does B1 bind [10]?
Answer: Result: no binding (tested: starting from 100 fold molar excess)

Question: Does B1 bind (hCD40L)?
Answer: Result: no binding (tested: starting from 100 fold molar excess)

Question: Does B1 bind (hTNF-alpha)?
Answer: Result: no binding (tested: starting from 100 fold molar excess)

Question: And the IC50 [11]?
Answer: The IC50 was 12 nM.

Question: And the IC50 [12]?
Answer: The IC50 was 0.49 nM.

Question: And the “Binding Level sample 2 (RU)” value [13]?
Answer: Its value is 185 RU.

Question: And the “Binding Level sample 2 - sample 1 (RU)” value [13]?
Answer: Its value is -26 RU.

Question: And the “Binding Level sample 2 (RU)” value [14]?
Answer: The value was 202 RU.

Question: What about the “Binding Level sample 2 - sample 1 (RU)” value [14] of the same binder?
Answer: The value was -13 RU.

Question: What about the “Binding Level sample 2 (RU)” value [15] of the same binder?
Answer: The value was 215 RU.

Question: And the “Binding Level sample 2 - sample 1 (RU)” value [15]?
Answer: Its value is 8 RU.

Question: And the IC50 [16]?
Answer: The IC50 was 9.11 nM.

Question: What about the “IC50, IL4 production, T-cell activation assay, donor 1” value [17] of the same binder?
Answer: The value was 110 nM.

Question: And the “IC50, IL4 production, T-cell activation assay, donor 2” value [17]?
Answer: Its value is 159 nM.

Question: What about the “IC50, IL4 production, T-cell activation assay, donor 3” value [17] of the same binder?
Answer: The value was 27 nM.

Question: What about the “IC50, IL4 production, T-cell activation assay, donor 4” value [17] of the same binder?
Answer: The value was 12 nM.

B2: OX40L040 (VHH, not shown: small tags and cut ends)
VHH: DVQLVESGGGLVQPGGSLRLSCAASRSIGRLDRMGWYRHRTGEPRELVATITGGSSINYGDFVKGRFTISRDNSKNTVYLQMNSLRPEDTAVYYCNFNKYVTSRDTWGQGTLVTVSS
Question: Which results are given for B2?
Answer: IC50 [18]: 0.046 nM; IC50 [19]: 0.082 nM; IC50 [20]: 0.102 nM; IC50 [21]: 0.092 nM; IC50, T cell assay with rec. hOX40L [22]: 9 nM; IC50 [23]: 0.084 nM
